What follows are binders tested against Sp3 (UniProt Q02447 1-781) (assay: EMSA; 5 mM MgCl2; 10 mM Tris pH 7.5, 50 mM KCl, 1 mM DTT, 75 ng/ul poly(dI-dC), 0.25 mg/ml BSA, 40 fmol probe, 1 ug protein, 20 min room temperature; Sp3 buffer plus 5% glycerol, 5 mM MgCl2, 0.025% NP-40; 6% PAGE in 0.5x TBE). Settings: protein: commercial; label: 5'-biotin on both strands; blunt.
Sequence of Sp3 (Q02447 whole entry): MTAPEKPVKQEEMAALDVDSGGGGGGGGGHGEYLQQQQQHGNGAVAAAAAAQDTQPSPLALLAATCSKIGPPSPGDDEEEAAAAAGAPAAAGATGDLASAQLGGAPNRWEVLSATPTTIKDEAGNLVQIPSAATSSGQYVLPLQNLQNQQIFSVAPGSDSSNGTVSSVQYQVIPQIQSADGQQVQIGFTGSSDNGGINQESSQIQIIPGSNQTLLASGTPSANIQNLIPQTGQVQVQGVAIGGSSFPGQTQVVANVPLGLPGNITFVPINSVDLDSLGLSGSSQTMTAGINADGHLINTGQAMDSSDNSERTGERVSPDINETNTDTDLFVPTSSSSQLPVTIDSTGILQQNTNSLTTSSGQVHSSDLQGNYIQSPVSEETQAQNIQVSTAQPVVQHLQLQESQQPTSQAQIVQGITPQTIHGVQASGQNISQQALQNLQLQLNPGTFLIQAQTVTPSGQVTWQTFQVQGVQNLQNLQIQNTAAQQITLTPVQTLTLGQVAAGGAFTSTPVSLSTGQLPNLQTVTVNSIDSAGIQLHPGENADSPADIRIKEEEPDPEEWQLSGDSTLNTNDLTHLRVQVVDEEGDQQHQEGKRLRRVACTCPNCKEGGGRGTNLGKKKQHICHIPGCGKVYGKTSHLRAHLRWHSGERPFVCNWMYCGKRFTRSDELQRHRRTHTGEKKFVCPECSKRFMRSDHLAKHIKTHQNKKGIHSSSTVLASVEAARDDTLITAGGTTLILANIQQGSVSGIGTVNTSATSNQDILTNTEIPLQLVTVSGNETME

| Binder | binding signal |
| --- | --- |
| SP1.3 (dsDNA) DNA 1: TCCTCCCTCGGCTCCTCCCCCAGGC DNA 2: GCCTGGGGGAGGAGCCGAGGGAGGA | 100 % of strongest band |
| SP1.2 (dsDNA) DNA 1: CTGATCGCCCCCACCCCCTTCCTTT DNA 2: AAAGGAAGGGGGTGGGGGCGATCAG | 99.3 % of strongest band |
| SP1.4 (dsDNA) DNA 1: CCCAGGCCCCGCCCTCTCCGCCTCG DNA 2: CGAGGCGGAGAGGGCGGGGCCTGGG | 83.4 % of strongest band |

Source: article PMC6290791, “microRNA-29b mediates fibrotic induction of human xylosyltransferase-I in human dermal fibroblasts via the Sp1 pathway”
